Patent CN114395044A (HEFEN TIANKPORT IMMUNOLOGICAL DRUG CO LTD, dated 2022)

Key:
[1] = target: T1, 人CD16a抗原 (ACRO biosystems, 货号CDA-H5220) (human, UniProt P08637 17-208); assay: ELISA, human CD16a coated at 2 μg/mL, HRP rabbit anti-human IgG, OD450
T1 construct: Bought protein coated on the ELISA plate at 2 μg/mL; also called 人CD16a蛋白; CD16抗原

[2] = target: T2, 人B7H6 (ACRO biosystems, 货号B76-H52H8) (human, UniProt Q68D85 25-262); assay: ELISA, human B7H6 coated at 2 μg/mL, HRP rabbit anti-human IgG, OD450
T2 construct: Bought protein coated on the ELISA plate at 2 μg/mL; also called 人B7H6蛋白; B7H6抗原
T2 sequence (looked up): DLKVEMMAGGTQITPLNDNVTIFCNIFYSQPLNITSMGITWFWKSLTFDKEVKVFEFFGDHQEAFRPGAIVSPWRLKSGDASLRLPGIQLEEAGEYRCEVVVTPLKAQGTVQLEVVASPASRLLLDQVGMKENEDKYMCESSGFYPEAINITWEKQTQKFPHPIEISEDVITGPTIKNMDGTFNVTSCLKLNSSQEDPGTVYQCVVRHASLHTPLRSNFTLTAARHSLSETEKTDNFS

T1 sequence (P08637 17-208 limits assumed): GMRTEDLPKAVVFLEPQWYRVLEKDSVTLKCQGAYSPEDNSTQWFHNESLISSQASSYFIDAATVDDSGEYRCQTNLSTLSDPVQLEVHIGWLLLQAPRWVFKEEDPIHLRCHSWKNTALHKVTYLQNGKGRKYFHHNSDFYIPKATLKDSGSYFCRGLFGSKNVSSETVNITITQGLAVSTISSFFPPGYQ

- binding result [1]: binds
- binding result [2]: binds
B1: CD16×B7H6重组双特异性抗体 (bispecific antibody, human IgG1, L234A L235A)
chain 1: not shown
chain 2: DIVLTQTPLSLSVTPGQPASISCKASQSVDYDGDSYMNWYLQKPGQPPQLLIYAASTLHSGIPDRFSGSGSGTDFTLKISRVEAEDVGVYYCQQSKEDPRTFGQGTKLEIKGGGGSGGGGSGGGGSEVQLVQSGAEVKKPGASVKVSCKASGYTFTDYNMDWVRQAPGQGLEWIGDINPNNGGTLYNQKFRGRVTLTVDTSISTAYMELSRLRSDDTAVYYCARSEVFYGNYADYWGQGTTVTVSSEPKSCDKTHTCPPCPAPEAAGGPSVFLFPPKPKDTLMISRTPEVTCVVVDVSHEDPEVKFNWYVDGVEVHNAKTKPREEQYNSTYRVVSVLTVLHQDWLNGKEYKCKVSNKALPAPIEKTISKAKGQPREPQVCTLPPSRDELTKNQVSLSCAVKGFYPSDIAVEWESNGQPENNYKTTPPVLDSDGSFFLVSKLTVDKSRWQQGNVFSCSVMHEALHNHYTQKSLSLSPGK
notes: Heterodimer of two scFv-Fc chains (knob-into-hole); Expressed in ExpiCHO-S, purified on protein A; also called NKmab; CD16×B7H6双特异性抗体
